Experimental findings from US20170015742A1 (published 2017) are described below.

For test [1], the target named is T1, Human PDGF-BB (human, UniProt P01127 82-190).
T1 construct: also called hPDGF-BB
Put plainly: SPR (Biacore), method of Example 1.1. As for the experimental part:
(§1) Unreacted moieties on the biosensor surface were blocked with ethanolamine. For kinetic analysis, rate equations derived from the 1:1 Langmuir binding model were fitted simultaneously to multiple antigen injections (using global fit analysis) with the use of Scrubber 2 (BioLogic Software), Biacore Biaevaluation 4.0.1 software or Biacore T100 Evaluation software. Purified antibodies or DVD-Ig molecules were diluted in running buffer for capture across goat anti-human Fc reaction surfaces. Antibodies or DVD-Ig molecules to be captured as a ligand (1 μg/ml) were injected over reaction matrices at a flow rate of 10 μl/minute. During the assay, all measurements were referenced against the capture surface alone (i.e., with no captured antibody or DVD-Ig molecule). […] The equilibrium dissociation constant KD (M) of the reaction between antibodies and the target antigen was then calculated from the kinetic rate constants by the following formula: KD=Koff/Kₒₙ. Binding was recorded as a function of time and kinetic rate constants were calculated. In this assay, on-rates as fast as 10⁶M⁻¹s⁻¹ and off-rates as slow as 10⁻⁶ s⁻¹ could be measured.

Test [2] addresses T2, Human VEGF-A 165 (human, UniProt P15692 207-395).
T2 construct: also called hVEGF165
Briefly: SPR (Biacore), method of Example 1.1. As for the experimental part: as §1

Test [3] has as its target PDGF-BB (UniProt P01127 82-190). Put plainly: SPR (Biacore), DVD-Ig captured by anti-human Fc, antigen injected. As for the experimental part: as §1, with “For example, approximately 9000 RU of goat anti-human Fc specific polyclonal antibody (Thermo Fisher Scientific Inc., Rockford, Ill.) diluted in 10 mM sodium acetate (pH 4.5) is directly immobilized across a CM5 research grade biosensor chip using a standard amine coupling kit according to manufacturer's instructions and procedures at 25 μg/ml. Unreacted” for “Unreacted”, “calculated.” for “calculated. In this assay, on-rates as fast as 10⁶M⁻¹s⁻¹ and off-rates as slow as 10⁻⁶ s⁻¹ could be measured.”

Test [4] deals with VEGF-A (UniProt P15692-4 27-191, limits assumed). The test is described as above. On the procedure:
as §1, with “For example, approximately 9000 RU of goat anti-human Fc specific polyclonal antibody (Thermo Fisher Scientific Inc., Rockford, Ill.) diluted in 10 mM sodium acetate (pH 4.5) is directly immobilized across a CM5 research grade biosensor chip using a standard amine coupling kit according to manufacturer's instructions and procedures at 25 μg/ml. Unreacted” for “Unreacted”, “calculated.” for “calculated. In this assay, on-rates as fast as 10⁶M⁻¹s⁻¹ and off-rates as slow as 10⁻⁶ s⁻¹ could be measured.”

Numbering of substitutions follows the chain as printed. Names and notes keep the numbering of the source.

T2 sequence (P15692 other isoform, or with tags, fused parts or gaps limits assumed): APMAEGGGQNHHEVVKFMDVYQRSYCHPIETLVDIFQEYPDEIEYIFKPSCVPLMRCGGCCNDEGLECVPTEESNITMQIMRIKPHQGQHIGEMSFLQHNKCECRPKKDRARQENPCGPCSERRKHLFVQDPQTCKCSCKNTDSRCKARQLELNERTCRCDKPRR
Chain of VEGF-A (P15692 other isoform, or with tags, fused parts or gaps limits assumed): as above
T1 sequence (P01127 82-190 limits assumed): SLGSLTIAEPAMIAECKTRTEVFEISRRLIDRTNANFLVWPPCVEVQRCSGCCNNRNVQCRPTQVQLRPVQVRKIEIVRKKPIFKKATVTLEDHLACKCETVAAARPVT
Chain of PDGF-BB (P01127 82-190): as the sequence (P01127 82-190 limits assumed) above

B1: CODV020 (bispecific antibody, human IgG1, kappa, L234A L235A)
heavy: EFVLTQSPGTLSLSPGERATLSCERSSGDIGDSYVSWYQQKPGQAPRLVIYADDQRPSGIPDRFSGSGSGTDFTLTISRLEPEDFAVYYCQSYDINIDIVFGGGTKVEIKGGGSGGGGEVQLVQSGSELKKPGASVKVSCKASGYTFTNYGMYWVRQAPGQGLEWMGWINTETGKPTYADDFKGRFVFSLDTSVSTAYLQISSLKAEDTAVYYCARTNYYYRSYIFYFDYWGQGTMVTVSSLGGCGGGSASTKGPSVFPLAPSSKSTSGGTAALGCLVKDYFPEPVTVSWNSGALTSGVHTFPAVLQSSGLYSLSSVVTVPSSSLGTQTYICNVNHKPSNTKVDKKVEPKSCDKTHTCPPCPAPEAAGGPSVFLFPPKPKDTLMISRTPEVTCVVVDVSHEDPEVKFNWYVDGVEVHNAKTKPREEQYNSTYRVVSVLTVLHQDWLNGKEYKCKVSNKALPAPIEKTISKAKGQPREPQVYTLPPSREEMTKNQVSLTCLVKGFYPSDIAVEWESNGQPENNYKTTPPVLDSDGSFFLYSKLTVDKSRWQQGNVFSCSVMHEALHNAYTQKSLSLSPGK
light: DTVLTQSPATLSLSPGERATLSCRASESVSTHMHWYQQKPGQAPRLLIYGASNLESGVPARFSGSGSGTDFTLTISSLEPEDFAVYFCQQSWNDPFTFGQGTKLEIKGGGSGGGGEVTLRESGPALVKPTQTLTLTCTFSGFSLSTYGMGVGWIRQPPGKALEWLANIWWDDDKYYNPSLKNRLTISKDTSKNQVVLTMTNMDPVDTATYYCARIESIGTTYSFDYWGQGTMVTVSSLGGCGGGSRTVAAPSVFIFPPSDEQLKSGTASVVCLLNNFYPREAKVQWKVDNALQSGNSQESVTEQDSKDSTYSLSSTLTLSKADYEKHKVYACEVTHQGLSSPVTKSFNRGEC
notes: Anti-human VEGF-A/anti-human PDGF-BB cross-over DVD-Ig (CO-DVD-Ig); also called PR-1571836
In test [1], B1 came in with a Kd of 3.5 pM and an association rate constant (kon) of 4.6e+07 M⁻¹ s⁻¹. In addition, in test [2], binding was put at a Kd of 33 pM and the kon turned out to be 3.1e+06 M⁻¹ s⁻¹.

B2: 9E10.1_GS_3E2.1 (PR-1610562) (bispecific antibody, human IgG1, kappa, L234A L235A)
heavy: EIQLVQSGSELKKPGASVKVSCKASGYTFTNYGMYWVKQAPGQGLEYMGWIDTETGRPTYADDFKGRFVFSLDTSVSTAYLQISSLKAEDTAVYFCARWSGDTTGIRGPWFAYWGQGTLVTVSSGGGGSGGGGSEVQLVQSGAEVKKPGSSVKVSCKASGYTFTESYMYWVKQAPGQGLELIGRIDPEDGSTDYVEKFKNKATLTADKSTSTAYMELSSLRSEDTAVYFCARFGARSYFYPMDAWGQGTTVTVSSASTKGPSVFPLAPSSKSTSGGTAALGCLVKDYFPEPVTVSWNSGALTSGVHTFPAVLQSSGLYSLSSVVTVPSSSLGTQTYICNVNHKPSNTKVDKKVEPKSCDKTHTCPPCPAPEAAGGPSVFLFPPKPKDTLMISRTPEVTCVVVDVSHEDPEVKFNWYVDGVEVHNAKTKPREEQYNSTYRVVSVLTVLHQDWLNGKEYKCKVSNKALPAPIEKTISKAKGQPREPQVYTLPPSREEMTKNQVSLTCLVKGFYPSDIAVEWESNGQPENNYKTTPPVLDSDGSFFLYSKLTVDKSRWQQGNVFSCSVMHEALHNAYTQKSLSLSPGK
light: DIRMTQSPSSLSASVGDRVTIECLASEDIYSDLAWYQQKPGKSPKLLIYNANGLQNGVPSRFSGSGSGTDYSLTISSLQPEDVATYFCQQYNYFPGTFGQGTKLEIKGGSGGGGSGGETVLTQSPATLSLSPGERATLSCRASESVSTLMHWYQQKPGQQPRLLIYGASNLESGVPARFSGSGSGTDFTLTISSLEPEDFAVYFCQQSWNDPWTFGGGTKVEIKRTVAAPSVFIFPPSDEQLKSGTASVVCLLNNFYPREAKVQWKVDNALQSGNSQESVTEQDSKDSTYSLSSTLTLSKADYEKHKVYACEVTHQGLSSPVTKSFNRGEC
notes: DVD-Ig: outer hBEW-9E10.1 (VEGF), inner hBFU-3E2.1 (PDGF), linkers GS-H10 / GS-L10(dR); Human IgG1 L234A, L235A, H435A with kappa light chain
In test [3], B2 displayed a Kd of 21 pM and a kon of 4.1e+07 M⁻¹ s⁻¹. In test [4], this molecule gave a Kd of 2.4 pM and a kon of 9.3e+06 M⁻¹ s⁻¹.

B3: 9E10.1_GS_CL-33675 (PR-1610561) (bispecific antibody, human IgG1, kappa, L234A L235A)
heavy: EIQLVQSGSELKKPGASVKVSCKASGYTFTNYGMYWVKQAPGQGLEYMGWIDTETGRPTYADDFKGRFVFSLDTSVSTAYLQISSLKAEDTAVYFCARWSGDTTGIRGPWFAYWGQGTLVTVSSGGGGSGGGGSEVTLRESGPALVKPTQTLTLTCTFSGFSLSTYGMGVGWIRQPPGKALEWLANIWWDDDKYYNPSLKNRLTISKDTSKNQVVLTMTNMDPVDTATYYCARIESSGPKYSFDYWGQGTMVTVSSASTKGPSVFPLAPSSKSTSGGTAALGCLVKDYFPEPVTVSWNSGALTSGVHTFPAVLQSSGLYSLSSVVTVPSSSLGTQTYICNVNHKPSNTKVDKKVEPKSCDKTHTCPPCPAPEAAGGPSVFLFPPKPKDTLMISRTPEVTCVVVDVSHEDPEVKFNWYVDGVEVHNAKTKPREEQYNSTYRVVSVLTVLHQDWLNGKEYKCKVSNKALPAPIEKTISKAKGQPREPQVYTLPPSREEMTKNQVSLTCLVKGFYPSDIAVEWESNGQPENNYKTTPPVLDSDGSFFLYSKLTVDKSRWQQGNVFSCSVMHEALHNAYTQKSLSLSPGK
light: DIRMTQSPSSLSASVGDRVTIECLASEDIYSDLAWYQQKPGKSPKLLIYNANGLQNGVPSRFSGSGSGTDYSLTISSLQPEDVATYFCQQYNYFPGTFGQGTKLEIKGGSGGGGSGGEIVLTQSPGTLSLSPGERATLSCRASSGSIWYSFVSWYQQKPGQAPRLLIYADDQRASGIPDRFSGSGSGTDFTLTISRLEPEDFAVYYCQSYGINIDVVFGGGTKVEIKRTVAAPSVFIFPPSDEQLKSGTASVVCLLNNFYPREAKVQWKVDNALQSGNSQESVTEQDSKDSTYSLSSTLTLSKADYEKHKVYACEVTHQGLSSPVTKSFNRGEC
notes: DVD-Ig: outer hBEW-9E10.1 (VEGF), inner CL-33675 (PDGF), linkers GS-H10 / GS-L10(dR); Human IgG1 L234A, L235A, H435A with kappa light chain; also called 9E10.1-GS-33675; hu VEGF 9E10.1-GS-hu PDGF 33675 [hu IgG1/k]; LALA H435A
In test [3], B3 registered a Kd of 0.45 pM and a kon of 2e+07 M⁻¹ s⁻¹. In test [4], this molecule gave a Kd of 1.8 pM and a kon of 9.7e+06 M⁻¹ s⁻¹.

B4: 9E10.1_GS_9E8.4 (PR-1612491) (bispecific antibody, human IgG1, kappa, L234A L235A)
heavy: B3 heavy with S237I, P239T, K240T
light: DIRMTQSPSSLSASVGDRVTIECLASEDIYSDLAWYQQKPGKSPKLLIYNANGLQNGVPSRFSGSGSGTDYSLTISSLQPEDVATYFCQQYNYFPGTFGQGTKLEIKGGSGGGGSGGEFVLTQSPGTLSLSPGERATLSCERSSGDIGDSYVSWYQQKPGQAPRLVIYADDQRPSGIPDRFSGSGSGTDFTLTISRLEPEDFAVYYCQSYDINIDIVFGGGTKVEIKRTVAAPSVFIFPPSDEQLKSGTASVVCLLNNFYPREAKVQWKVDNALQSGNSQESVTEQDSKDSTYSLSSTLTLSKADYEKHKVYACEVTHQGLSSPVTKSFNRGEC
notes: DVD-Ig: outer hBEW-9E10.1 (VEGF), inner hBDI-9E8.4 (PDGF), linkers GS-H10 / GS-L10(dR); Human IgG1 L234A, L235A, H435A with kappa light chain
In test [3], B4 showed a Kd of 25 pM and a kon of 6.8e+06 M⁻¹ s⁻¹. For the same molecule, in test [4], the Kd is 2.2 pM and the kon stood at 1.1e+07 M⁻¹ s⁻¹.

B5: CODV019 (bispecific antibody, human IgG1, kappa, L234A L235A)
heavy: DTVLTQSPATLSLSPGERATLSCRASESVSTHMHWYQQKPGQAPRLLIYGASNLESGVPARFSGSGSGTDFTLTISSLEPEDFAVYFCQQSWNDPFTFGQGTKLEIKGGGSGGGGEVTLRESGPALVKPTQTLTLTCTFSGFSLSTYGMGVGWIRQPPGKALEWLANIWWDDDKYYNPSLKNRLTISKDTSKNQVVLTMTNMDPVDTATYYCARIESIGTTYSFDYWGQGTMVTVSSLGGCGGGSASTKGPSVFPLAPSSKSTSGGTAALGCLVKDYFPEPVTVSWNSGALTSGVHTFPAVLQSSGLYSLSSVVTVPSSSLGTQTYICNVNHKPSNTKVDKKVEPKSCDKTHTCPPCPAPEAAGGPSVFLFPPKPKDTLMISRTPEVTCVVVDVSHEDPEVKFNWYVDGVEVHNAKTKPREEQYNSTYRVVSVLTVLHQDWLNGKEYKCKVSNKALPAPIEKTISKAKGQPREPQVYTLPPSREEMTKNQVSLTCLVKGFYPSDIAVEWESNGQPENNYKTTPPVLDSDGSFFLYSKLTVDKSRWQQGNVFSCSVMHEALHNAYTQKSLSLSPGK
light: EFVLTQSPGTLSLSPGERATLSCERSSGDIGDSYVSWYQQKPGQAPRLVIYADDQRPSGIPDRFSGSGSGTDFTLTISRLEPEDFAVYYCQSYDINIDIVFGGGTKVEIKGGGSGGGGEVQLVQSGSELKKPGASVKVSCKASGYTFTNYGMYWVRQAPGQGLEWMGWINTETGKPTYADDFKGRFVFSLDTSVSTAYLQISSLKAEDTAVYYCARTNYYYRSYIFYFDYWGQGTMVTVSSLGGCGGGSRTVAAPSVFIFPPSDEQLKSGTASVVCLLNNFYPREAKVQWKVDNALQSGNSQESVTEQDSKDSTYSLSSTLTLSKADYEKHKVYACEVTHQGLSSPVTKSFNRGEC
notes: Anti-human VEGF-A/anti-human PDGF-BB cross-over DVD-Ig (CO-DVD-Ig); also called PR-1571832
In test [1], B5 displayed a Kd of 4.4 pM and a kon of 3.9e+07 M⁻¹ s⁻¹. Moreover, in test [2], the Kd came to 50 pM and the kon amounted to 2.9e+06 M⁻¹ s⁻¹.
